Assay results from patent publication US20170334973A1.

Columns and labels:
[1] = molecular target: EBOV GPddmuc (Ebola virus (EBOV)), Q05320; assay: ELISA; details: remark: other sources report otherwise
[2] = molecular target: SUDV GPddmuc (Sudan virus (SUDV)), Q66814; assay: ELISA; details: remark: other sources report otherwise

B1: FVM04 (antibody, V domains shown)
VH: EVQLVQSGGGLVQPGGSMRLSCEASGLSLSDYFMHWVRQAQGKGLEWIGLIQTKAFTYKTEYPAAVKGRFTISRDDSKNTLYLQMSSLKPEDTALYYCIAVTPDFYYWGQGVLVTVSS
VL: DVVMTQSPSFLSASVGDRVTITCRASQDITINLNWFQHKPGKAPKRLIYVASRLERGVPSRFSGSGSGTEFTLTISSLQPEDFATYYCQQYNNYPLTFGPGTKLDIKRTV
[1]
  EC50: 0.149 nM
[2]
  EC50: 0.164 nM

B2: FVM09 (antibody, V domains shown)
VH: EVQLVQSGAEVKRPGESLTISCKTSGYSFTDSWVAWVRQMPGKGLEWLGSIYPGDSETKYNPSFQGHVTISADKSVTTTYLKWSSLKASDTATYYCVKGSETWGQGVLVTVSS
VL: QLVLTQPASLSASPGASASLTCTFSGGINVAGYNILWYQQKAGSPPRYLLRYKSDSTKDQGSGVPSRFSGSKDASANTGILRISGLQSEDEADYYCAIGHSSGWIFGGGTRLTVL
[1]
  EC50: 7.07 nM
[2]
  EC50: 7.73 nM

B3: FVM17 (antibody, V domains shown)
VH: EVQLVQSGAEVKRPGESLTISCKTSGYSFTDSWISWVRQMPGKGLEWMGSIYPGDSDARYNPSFQGHVTISADKSISTTYLKWSSLKASDTATYYCVKGSETWGQGVLVTVSS
VL: QAVVTQPASLSASPGTSASLTCTFSGGINVAGYNILWYQQKPGSPPRFLLRYKSDSDNVQGSGVPSHFSGSKDASANTGILRISGLQSEDEADYYCAIGHSSGWIFGGGTRLTVL
[1]
  EC50: 0.096 nM
[2]
  EC50: 0.113 nM

B4: FVM20 (antibody, V domains shown)
VH: EVQLVESGAEVKRPGESLTISCKTSGYSFTGSWISWVRQMPGKGLEWLGSIYPGDSETKYNPSFQGHVTISADKSVTTTYLKWSSLKASDTATYYCVKGSETWGQGVLVTVSS
VL: NFMLTQSASLSASPGASASLTCTFSGGINVAGYHIFWYQQNPGSPPRYLLRYKSDSEKDQGSGVPSRFSGSKDASANTGILRISGLQSEDEADYYCAIGHSSGWIFGGGTRLTVL
[1]
  EC50: 0.081 nM
[2]
  EC50: 0.119 nM
